The values that follow come from paper PMC9604365 (2022).

Common to all, as to test: ELISA
A general note: An ELISA detects its analyte on a solid surface through an enzyme-linked reagent.

One test concerns the target T1, integrin αvβ5 (Homo sapiens, UniProt P06756).
T1 chain 1: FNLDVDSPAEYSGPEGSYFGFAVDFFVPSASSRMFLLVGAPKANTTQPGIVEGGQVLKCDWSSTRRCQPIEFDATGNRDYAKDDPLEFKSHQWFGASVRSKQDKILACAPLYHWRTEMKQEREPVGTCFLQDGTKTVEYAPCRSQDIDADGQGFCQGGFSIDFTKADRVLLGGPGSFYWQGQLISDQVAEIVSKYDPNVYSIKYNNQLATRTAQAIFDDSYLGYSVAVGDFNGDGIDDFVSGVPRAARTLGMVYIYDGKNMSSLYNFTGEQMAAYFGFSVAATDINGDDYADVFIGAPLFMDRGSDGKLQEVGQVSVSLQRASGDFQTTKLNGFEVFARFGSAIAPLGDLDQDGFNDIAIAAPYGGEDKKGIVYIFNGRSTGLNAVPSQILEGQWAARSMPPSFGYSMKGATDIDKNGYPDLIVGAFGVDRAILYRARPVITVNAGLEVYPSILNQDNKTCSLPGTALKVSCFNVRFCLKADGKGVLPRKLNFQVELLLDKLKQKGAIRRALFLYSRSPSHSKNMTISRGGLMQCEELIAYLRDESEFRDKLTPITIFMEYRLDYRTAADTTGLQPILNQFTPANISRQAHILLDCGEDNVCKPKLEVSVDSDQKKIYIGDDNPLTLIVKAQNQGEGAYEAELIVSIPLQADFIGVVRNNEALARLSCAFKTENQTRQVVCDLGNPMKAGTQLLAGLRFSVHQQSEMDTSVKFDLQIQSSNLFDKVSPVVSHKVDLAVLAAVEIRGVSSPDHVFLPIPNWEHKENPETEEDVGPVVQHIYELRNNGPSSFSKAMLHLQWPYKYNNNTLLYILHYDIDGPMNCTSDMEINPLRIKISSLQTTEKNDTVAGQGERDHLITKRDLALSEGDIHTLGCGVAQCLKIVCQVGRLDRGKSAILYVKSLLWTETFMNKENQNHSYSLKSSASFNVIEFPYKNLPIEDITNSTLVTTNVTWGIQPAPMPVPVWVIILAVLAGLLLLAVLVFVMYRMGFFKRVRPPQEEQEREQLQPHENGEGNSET
T1 chain 2: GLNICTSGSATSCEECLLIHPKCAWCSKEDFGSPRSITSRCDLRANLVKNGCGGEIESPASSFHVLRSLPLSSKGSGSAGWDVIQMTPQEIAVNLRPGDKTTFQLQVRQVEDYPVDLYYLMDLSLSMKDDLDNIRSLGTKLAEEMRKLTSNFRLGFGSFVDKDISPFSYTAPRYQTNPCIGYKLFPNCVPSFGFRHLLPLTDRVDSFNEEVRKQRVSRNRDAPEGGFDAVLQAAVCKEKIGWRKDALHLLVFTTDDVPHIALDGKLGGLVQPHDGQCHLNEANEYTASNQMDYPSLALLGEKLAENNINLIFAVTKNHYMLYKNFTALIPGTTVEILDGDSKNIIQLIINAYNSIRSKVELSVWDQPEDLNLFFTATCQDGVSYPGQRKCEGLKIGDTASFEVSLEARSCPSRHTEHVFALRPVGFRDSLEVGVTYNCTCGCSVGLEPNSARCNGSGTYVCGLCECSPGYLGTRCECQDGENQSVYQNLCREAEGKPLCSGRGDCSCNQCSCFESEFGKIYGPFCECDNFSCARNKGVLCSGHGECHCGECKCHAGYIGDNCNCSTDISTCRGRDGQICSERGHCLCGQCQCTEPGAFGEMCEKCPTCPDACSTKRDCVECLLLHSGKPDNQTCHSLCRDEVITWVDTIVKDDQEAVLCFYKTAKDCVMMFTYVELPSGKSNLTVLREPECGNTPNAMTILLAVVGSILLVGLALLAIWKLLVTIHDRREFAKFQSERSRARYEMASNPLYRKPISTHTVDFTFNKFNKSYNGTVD

The target of the next test is DR5 (Homo sapiens, UniProt O14763).
Another test concerns the target T2, integrin αvβ3 (Homo sapiens, UniProt P06756).
T2 chain 1: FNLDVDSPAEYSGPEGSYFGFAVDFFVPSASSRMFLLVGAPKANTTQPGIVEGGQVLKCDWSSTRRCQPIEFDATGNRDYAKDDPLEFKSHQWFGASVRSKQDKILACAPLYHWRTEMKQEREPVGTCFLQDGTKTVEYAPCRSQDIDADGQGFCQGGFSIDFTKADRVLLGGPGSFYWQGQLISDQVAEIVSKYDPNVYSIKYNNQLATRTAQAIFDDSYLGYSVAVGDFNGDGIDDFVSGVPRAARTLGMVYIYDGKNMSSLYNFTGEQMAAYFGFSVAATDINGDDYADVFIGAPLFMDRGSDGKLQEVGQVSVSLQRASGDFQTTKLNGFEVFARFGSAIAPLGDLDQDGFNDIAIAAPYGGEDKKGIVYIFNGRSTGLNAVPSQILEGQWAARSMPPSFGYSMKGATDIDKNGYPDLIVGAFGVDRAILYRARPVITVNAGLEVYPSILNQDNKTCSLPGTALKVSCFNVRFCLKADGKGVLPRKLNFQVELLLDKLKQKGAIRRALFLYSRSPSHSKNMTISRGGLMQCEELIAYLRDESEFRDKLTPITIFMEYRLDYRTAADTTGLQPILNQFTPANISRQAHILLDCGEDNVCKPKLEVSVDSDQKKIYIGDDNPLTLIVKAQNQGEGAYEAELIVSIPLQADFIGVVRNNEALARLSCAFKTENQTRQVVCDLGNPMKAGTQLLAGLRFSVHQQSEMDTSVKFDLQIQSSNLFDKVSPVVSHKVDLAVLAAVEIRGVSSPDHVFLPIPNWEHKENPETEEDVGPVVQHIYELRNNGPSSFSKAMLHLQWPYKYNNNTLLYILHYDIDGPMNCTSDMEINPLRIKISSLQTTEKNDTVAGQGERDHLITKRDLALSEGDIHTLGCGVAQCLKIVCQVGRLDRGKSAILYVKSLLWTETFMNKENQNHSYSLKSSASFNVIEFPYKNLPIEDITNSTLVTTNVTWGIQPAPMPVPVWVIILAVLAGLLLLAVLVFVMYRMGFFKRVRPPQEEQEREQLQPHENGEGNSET
T2 chain 2: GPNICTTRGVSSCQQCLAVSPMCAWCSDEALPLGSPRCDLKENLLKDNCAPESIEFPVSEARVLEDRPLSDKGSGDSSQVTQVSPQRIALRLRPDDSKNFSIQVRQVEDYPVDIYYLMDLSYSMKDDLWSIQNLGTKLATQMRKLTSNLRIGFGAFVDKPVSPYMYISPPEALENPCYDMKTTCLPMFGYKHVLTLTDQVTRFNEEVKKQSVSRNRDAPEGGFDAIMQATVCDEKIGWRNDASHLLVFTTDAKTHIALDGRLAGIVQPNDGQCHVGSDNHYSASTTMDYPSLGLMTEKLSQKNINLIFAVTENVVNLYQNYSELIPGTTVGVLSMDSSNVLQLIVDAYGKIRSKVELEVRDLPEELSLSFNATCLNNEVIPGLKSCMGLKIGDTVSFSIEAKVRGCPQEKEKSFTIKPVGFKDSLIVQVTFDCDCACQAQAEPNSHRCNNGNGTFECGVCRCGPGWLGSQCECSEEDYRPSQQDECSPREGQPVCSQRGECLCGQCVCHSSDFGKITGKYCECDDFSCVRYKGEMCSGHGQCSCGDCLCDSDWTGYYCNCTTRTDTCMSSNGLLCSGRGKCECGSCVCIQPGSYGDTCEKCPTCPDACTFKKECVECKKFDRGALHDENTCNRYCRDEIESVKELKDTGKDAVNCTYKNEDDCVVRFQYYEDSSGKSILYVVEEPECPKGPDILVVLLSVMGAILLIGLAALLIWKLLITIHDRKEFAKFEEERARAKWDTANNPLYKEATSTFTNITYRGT

B1: DR5-B-iRGD 114-281 (protein)
chain: VRERGPQRVAAHITGTRGRSNTLSSPNSKNEKALGRKINSWESSRSGHSFLSNLHLRNGELVIHEKGFYYIYSQTNFKFREEIKENTKNDKQMVQYIYKYTSYPDPILLMKSARNSCWSKDAEYGLYSIYQGGIFELKENDRIFVSVTNERLLDMHHEASFFGAFLVG
As a reminder, the Kd is a measure of binding affinity in units of concentration. High values mean a looser complex, low ones a tighter complex. B1: the Kd stood at 96.5 nM in the test with integrin αvβ5, 1.66 nM in the test with DR5 and 1.89 nM with integrin αvβ3.

B2: DR5-B 114-281 (protein)
chain: VRERGPQRVAAHITGTRGRSNTLSSPNSKNEKALGRKINSWESSRSGHSFLSNLHLRNGELVIHEKGFYYIYSQTNFKFREEIKENTKNDKQMVQYIYKYTSYPDPILLMKSARNSCWSKDAEYGLYSIYQGGIFELKENDRIFVSVTNERLLDMHHEASFFGAFLVG
In turn, B2 showed a Kd with DR5 of 1.46 nM.
